Data reported in the supplement of paper PMC7877785.
± gives the uncertainty stated by the source.

Assay: self-splicing fitness, log relative to wild type (ln ratio); higher = more splicing; Tetrahymena group I intron in knt gene, E. coli kanamycin selection, DiMSum; sequences stand for … in CUCUCU…GGAGGGAAAAGUUAUCAGGCAUGCACCUGGUAGCUAGUCUUUAAACCAAUAGAUUGCAUCGGUUUAAAAGGCAAGACCGUCAAAUUGCGGGAAAGGGGUCAACAGCCGUUCAGUACCAAGUCUCAGGGGAAACUUUGAGAUGGCCUUGCAAAGGGUAUGGUAAUAAGCUGACGGACAUGGUCCUAACCACGCAGCCAAGUCCUAAGUCAACAGAUCUUCUGUUGAUAUGGAUGCAGUUCACAGACUAAAUGUCGGUCGGGGAAGAUGUAUUCUUCUCAUAAGAUAUAGUCGGACCUCUCCUUAAUGGGAGCUAGCGGAUGAAGUGAUGCAACACUGGAGCCGCUGGGAACUAAUUUGUAUGCGAAAGUAUAUUGAUUAGUUUUGGAGUACUCGUGGUCG
How it was run: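 A randomised library covering all eight P1ex-region intron nucleotides was built with the intron in the knt kanamycin-resistance gene on pET-22b(+) and held in E. coli BL21(DE3). Cells were grown overnight at 37°C or 30°C on LB agar, with or without 25 μg/mL kanamycin, plus 100 μg/mL carbenicillin, 50 μM IPTG and 0.2% rhamnose, and pooled colonies were amplicon-sequenced on an Illumina HiSeq 2500. DiMSum fitness is the error-weighted combination of wild-type-normalised replicate fold changes, kanamycin versus none.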

## CACUAGCAAUAUUACGAAAG
30 °C
  self-splicing fitness (ln): -1.23 ± 0.062
37 °C
  self-splicing fitness (ln): -0.136 ± 0.084

## UGAGAGCAAUAUUACGGUUA
30 °C
  self-splicing fitness (ln): -1.14 ± 0.23
37 °C
  self-splicing fitness (ln): -1.11 ± 0.21

## CACGAGCAAUAUUACGGAGA
30 °C
  self-splicing fitness (ln): -3.38 ± 0.2
37 °C
  self-splicing fitness (ln): -2.85 ± 0.25

## UAGGAGCAAUAUUACGCGAU
30 °C
  self-splicing fitness (ln): -3.84 ± 0.47
37 °C
  self-splicing fitness (ln): -2.68 ± 0.34

## CCAGAGCAAUAUUACGACAC
30 °C
  self-splicing fitness (ln): -1.29 ± 0.22

## CGGCAGCAAUAUUACGGGUU
30 °C
  self-splicing fitness (ln): -4.26 ± 0.28
37 °C
  self-splicing fitness (ln): -2.87 ± 0.33

## GGUUAGCAAUAUUACGAGCU
30 °C
  self-splicing fitness (ln): -2.61 ± 0.29
37 °C
  self-splicing fitness (ln): -1.69 ± 0.32

## UCAUAGCAAUAUUACGAGUA
30 °C
  self-splicing fitness (ln): -3.06 ± 0.23
37 °C
  self-splicing fitness (ln): 0.0724 ± 0.12

## AUCUAGCAAUAUUACGUCCC
30 °C
  self-splicing fitness (ln): -0.434 ± 0.3
37 °C
  self-splicing fitness (ln): -0.129 ± 0.27

## CAUAAGCAAUAUUACGGAAG
30 °C
  self-splicing fitness (ln): -1.43 ± 0.075
37 °C
  self-splicing fitness (ln): -0.578 ± 0.096

## CGGCAGCAAUAUUACGUGUA
30 °C
  self-splicing fitness (ln): -3.77 ± 0.25
37 °C
  self-splicing fitness (ln): -2.21 ± 0.14

## AGAUAGCAAUAUUACGGUGC
30 °C
  self-splicing fitness (ln): -4.21 ± 0.31
37 °C
  self-splicing fitness (ln): -0.624 ± 0.15

## UUUUAGCAAUAUUACGCGGU
37 °C
  self-splicing fitness (ln): -1.53 ± 0.45

## CAGCAGCAAUAUUACGUGCG
30 °C
  self-splicing fitness (ln): -1 ± 0.05
37 °C
  self-splicing fitness (ln): -0.378 ± 0.066

## UUGGAGCAAUAUUACGAACG
37 °C
  self-splicing fitness (ln): -0.295 ± 0.28

## CGAUAGCAAUAUUACGGGAU
30 °C
  self-splicing fitness (ln): -4.23 ± 0.31
37 °C
  self-splicing fitness (ln): -2.86 ± 0.27

## CUACAGCAAUAUUACGAGGU
30 °C
  self-splicing fitness (ln): -2.63 ± 0.13
37 °C
  self-splicing fitness (ln): -3.03 ± 0.27

## GAAGAGCAAUAUUACGAGUG
30 °C
  self-splicing fitness (ln): -4.54 ± 0.41
37 °C
  self-splicing fitness (ln): -2.81 ± 0.24

## GCUUAGCAAUAUUACGGAGA
30 °C
  self-splicing fitness (ln): -2.02 ± 0.14
37 °C
  self-splicing fitness (ln): -0.596 ± 0.12

## GUCGAGCAAUAUUACGCUCU
30 °C
  self-splicing fitness (ln): -1.61 ± 0.24
37 °C
  self-splicing fitness (ln): -1.39 ± 0.23

## AGUGAGCAAUAUUACGCGAU
30 °C
  self-splicing fitness (ln): -3.96 ± 0.42
37 °C
  self-splicing fitness (ln): -1.8 ± 0.24

## GUUGAGCAAUAUUACGUGCA
30 °C
  self-splicing fitness (ln): -1.65 ± 0.45
37 °C
  self-splicing fitness (ln): -0.908 ± 0.28

## UAGCAGCAAUAUUACGUCUA
30 °C
  self-splicing fitness (ln): -0.114 ± 0.073
37 °C
  self-splicing fitness (ln): 0.146 ± 0.084

## UCCUAGCAAUAUUACGCUGA
30 °C
  self-splicing fitness (ln): -1.02 ± 0.11
37 °C
  self-splicing fitness (ln): -0.876 ± 0.12

## CCACAGCAAUAUUACGCUGA
30 °C
  self-splicing fitness (ln): -2.51 ± 0.12
37 °C
  self-splicing fitness (ln): -3.16 ± 0.24

## UUUAAGCAAUAUUACGACCG
30 °C
  self-splicing fitness (ln): -0.889 ± 0.18
37 °C
  self-splicing fitness (ln): 0.563 ± 0.26

## AAUAAGCAAUAUUACGUUUU
30 °C
  self-splicing fitness (ln): -1.78 ± 0.076
37 °C
  self-splicing fitness (ln): -1.55 ± 0.12

## UAUUAGCAAUAUUACGGGCU
30 °C
  self-splicing fitness (ln): -3.47 ± 0.27
37 °C
  self-splicing fitness (ln): -2.3 ± 0.23

## UCAUAGCAAUAUUACGUACA
30 °C
  self-splicing fitness (ln): -2.15 ± 0.14
37 °C
  self-splicing fitness (ln): -1.46 ± 0.12

## CAGUAGCAAUAUUACGGCCG
30 °C
  self-splicing fitness (ln): -0.034 ± 0.13
37 °C
  self-splicing fitness (ln): 0.348 ± 0.2

## UUUAAGCAAUAUUACGAAGA
30 °C
  self-splicing fitness (ln): -2.77 ± 0.27
37 °C
  self-splicing fitness (ln): -1.33 ± 0.21

## GUUUAGCAAUAUUACGGAAG
30 °C
  self-splicing fitness (ln): -2.59 ± 0.23
37 °C
  self-splicing fitness (ln): -0.848 ± 0.22

## AAUGAGCAAUAUUACGGUCG
30 °C
  self-splicing fitness (ln): -2.26 ± 0.14
37 °C
  self-splicing fitness (ln): -1.62 ± 0.2

## GCGCAGCAAUAUUACGAACG
30 °C
  self-splicing fitness (ln): -1.37 ± 0.11
37 °C
  self-splicing fitness (ln): -0.329 ± 0.17

## AGACAGCAAUAUUACGCUAU
30 °C
  self-splicing fitness (ln): -3.31 ± 0.18
37 °C
  self-splicing fitness (ln): -0.948 ± 0.12

## CCGUAGCAAUAUUACGCCAU
30 °C
  self-splicing fitness (ln): -3.26 ± 0.25
37 °C
  self-splicing fitness (ln): -2.77 ± 0.36

## CGGCAGCAAUAUUACGGCAU
30 °C
  self-splicing fitness (ln): -0.976 ± 0.088
37 °C
  self-splicing fitness (ln): -0.0577 ± 0.1

## GUGCAGCAAUAUUACGAGUU
30 °C
  self-splicing fitness (ln): -2.49 ± 0.15
37 °C
  self-splicing fitness (ln): -1.62 ± 0.15

## GCGUAGCAAUAUUACGAGUU
30 °C
  self-splicing fitness (ln): -2.87 ± 0.092
37 °C
  self-splicing fitness (ln): -0.803 ± 0.097

## ACGAAGCAAUAUUACGUGGG
30 °C
  self-splicing fitness (ln): -2.76 ± 0.16
37 °C
  self-splicing fitness (ln): -2.84 ± 0.17

## AUAUAGCAAUAUUACGACGG
30 °C
  self-splicing fitness (ln): -2.5 ± 0.17
37 °C
  self-splicing fitness (ln): -2.5 ± 0.22

## UGAAAGCAAUAUUACGUAAG
30 °C
  self-splicing fitness (ln): -0.503 ± 0.087
37 °C
  self-splicing fitness (ln): -0.0639 ± 0.12

## GACUAGCAAUAUUACGCAAC
30 °C
  self-splicing fitness (ln): -0.979 ± 0.15
37 °C
  self-splicing fitness (ln): -1.54 ± 0.19
